Our source for the display efficiency, display efficiency (1:1 molar ratio) and stoichiometry N values is PMC7822889.

“And” between values parts separate entries of the source, which are not always exact repeats. Identical values can stand only once.

For this experiment, the target named is SpyCatcher003-mi3 VLP.

In general, stoichiometry N refers to a count of units in the complex or per binding partner.

For “SpyTag-RBD (from UniProt P0DTC2 331-529) (domain or fragment)”, the display efficiency is 93%; the display efficiency (1:1 molar ratio) was 64%; the stoichiometry N is 56 RBDs per VLP and 38 RBD per VLP.
